Source: patent US20230227832, “ANTICANCER APTAMERS AND USES THEREOF” (CONSIGLIO NAZIONALE DELLE RICERCHE, published 2023)

Experiments:
Serum albumin (HSA) = Serum albumin (HSA) (Homo sapiens, UniProt P02768 P02768:25-609); assay: ELONA; plate coated with 30 nM HSA; figure legend says bovine serum albumin; details: tags: Sigma Aldrich; label: biotin
Protocol: For ELONA, wells of a 96-well High Binding microplate (Nunc MaxiSorp) were left uncoated or coated with exosomes (4 μg) o.n. All the subsequent steps were performed at room temperature. Following incubation, the plate was blocked with 300 μl 3% BSA (AppliChem) in PBS for 2 hours and incubated with 100 μL biotinylated aptamers (Tebu-bio), dissolved in PBS for 2 hours. Then the plate was washed three times with 300 μl PBS and streptavidin-HPR dissolved in 100 μl PBS (Sigma Aldrich) was added with dilution 1:10000. After 1 hour of incubation, the plate was washed three times before the addition of the TMB developing solution. The reaction was stopped with 0.16 M sulfuric acid and signal strength was analyzed by measuring absorbance at 450 nm with a microplate reader (Thermo Scientific).
MDA-MB-231-derived exosomes and increasing concentrations of aptamer (ex-50.T or control) were used to calculate the binding affinity. The Kd was determined by means of GraphPad Prism. To verify the binding on human serum alumina (HSA), the plate coating was performed at 30 nM HSA (Sigma Aldrich).

[1] = molecular target: T1, Gremlin-1 (GREM1), recombinant human (Homo sapiens, UniProt O60565 O60565:25-184); assay: ELONA; room temperature, PBS; biotinylated aptamer, streptavidin-HRP; details: label: biotin
T1 sequence: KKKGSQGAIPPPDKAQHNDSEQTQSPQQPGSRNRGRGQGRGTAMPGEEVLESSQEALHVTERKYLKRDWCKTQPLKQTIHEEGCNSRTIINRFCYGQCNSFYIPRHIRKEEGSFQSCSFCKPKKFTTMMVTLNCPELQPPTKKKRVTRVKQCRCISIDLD

Serum albumin (HSA), sequence (P02768 25-609, one chain of several): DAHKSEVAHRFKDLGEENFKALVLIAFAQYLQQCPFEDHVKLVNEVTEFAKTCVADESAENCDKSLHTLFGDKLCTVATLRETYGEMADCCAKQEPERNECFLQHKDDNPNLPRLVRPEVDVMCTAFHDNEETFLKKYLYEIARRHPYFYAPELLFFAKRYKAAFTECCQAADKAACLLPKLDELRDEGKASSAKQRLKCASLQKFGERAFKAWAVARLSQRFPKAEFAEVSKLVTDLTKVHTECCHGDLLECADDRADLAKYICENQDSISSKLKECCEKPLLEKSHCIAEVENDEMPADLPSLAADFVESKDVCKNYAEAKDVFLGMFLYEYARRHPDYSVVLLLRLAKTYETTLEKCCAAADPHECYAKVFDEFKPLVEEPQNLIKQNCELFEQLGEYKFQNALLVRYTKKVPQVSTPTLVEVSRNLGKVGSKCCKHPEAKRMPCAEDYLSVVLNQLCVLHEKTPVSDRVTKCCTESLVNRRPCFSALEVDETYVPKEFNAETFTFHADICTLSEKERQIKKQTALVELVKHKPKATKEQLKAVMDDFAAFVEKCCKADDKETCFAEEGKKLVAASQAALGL

B1: ex-50.T (ssRNA)
RNA: UGUGGCAGUUAAGAAUAGAUCUUCGCUGCGAUU
modifications: 2'-F pyrimidines (2'-F-C, 2'-F-U; per library chemistry)
With B1 the binding result (Serum albumin (HSA)) was “no binding” and the Kd [1] was 37.7 nM.
